Reference: patent publication US20110152173A1 (EMERGENT PRODUCT DEVELOPMENT SEATTLE, published 2011)

T1: mouse RANKL (mouse, UniProt O35235 158-316, limits assumed)
T1 construct: also called mRANKL
T1 sequence (looked up): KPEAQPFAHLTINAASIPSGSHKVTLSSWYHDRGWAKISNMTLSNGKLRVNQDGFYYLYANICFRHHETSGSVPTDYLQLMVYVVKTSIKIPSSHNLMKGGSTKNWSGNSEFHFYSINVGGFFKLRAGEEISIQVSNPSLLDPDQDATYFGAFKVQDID

T2: human RANKL (human, UniProt O14788 140-317, limits assumed)
T2 sequence (looked up): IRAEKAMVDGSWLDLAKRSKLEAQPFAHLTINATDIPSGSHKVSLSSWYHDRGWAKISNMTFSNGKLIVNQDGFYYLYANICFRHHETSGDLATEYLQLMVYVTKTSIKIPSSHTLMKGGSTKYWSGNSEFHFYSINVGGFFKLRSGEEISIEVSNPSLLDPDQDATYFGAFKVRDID

T3: human IL7 (human, UniProt P13232 26-177)
T3 sequence (looked up): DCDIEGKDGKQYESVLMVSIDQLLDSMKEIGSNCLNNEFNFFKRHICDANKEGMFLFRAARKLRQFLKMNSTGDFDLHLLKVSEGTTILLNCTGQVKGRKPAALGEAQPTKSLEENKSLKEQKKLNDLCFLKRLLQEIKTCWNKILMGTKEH

B1: TRU(XT6)-1002 (Fc fusion)
chain: LPAQVAFTPYAPEPGSTCRLREYYDQTAQMCCSKCSPGQHAKVFCTKTSDTVCDSCEDSTYTQLWNWVPECLSCGSRCSSDQVETQACTREQNRICTCRPGWYCALSKQEGCRLCAPLRKCRPGFGVARPGTETSDVVCKPCAPGTFSNTTSSTDICRPHQICNVVAIPGNASMDAVCTSTSPTRSMAPGAVHLPQPVSTRSQHTQPTPEPSTAPSTSFLLPMGPSPPAEGSTGDTGEPKSSDKTHTCPPCPAPEAAGAPSVFLFPPKPKDTLMISRTPEVTCVVVDVSHEDPEVKFNWYVDGVEVHNAKTKPREEQYNSTYRVVSVLTVLHQDWLNGKAYACAVSNKALPAPIEKTISKAKGQPREPQVYTLPPSRDELTKNQVSLTCLVKGFYPSDIAVEWESNGQPENNYKTTPPVLDSDGSFFLYSKLTVDKSRWQQGNVFSCSVMHEALHNHYTQKSLSLSPGQRHNNSSLNTRTQKARHSPNSEVQLLESGGGLVQPGGSLRLSCAASGFTFSFYQMHWVRQAPGKGLEWVSGIYPSGGYTKYADSVKGRFTISRDNSKNTLYLQMNSLRAEDTAVYYCARDLGYGSSWYYFDYWGQGTLVTVSSGGGGSGGGGSGGGGSQSALTQPASVSGSPGQSITISCSGTDSDVGGYNHVSWYQQHPGKAPKLIIYDVDHRPSGISNRFSGSKSGNTASLTISGLQAEDEADYYCSSYRSGSTYVFGTGTKVTVL
notes: also called Xceptor TNFRSF1B::anti-HIL6
B2: TRU(XT6)-1006 (Fc fusion)
chain: LPAQVAFTPYAPEPGSTCRLREYYDQTAQMCCSKCSPGQHAKVFCTKTSDTVCDSCEDSTYTQLWNWVPECLSCGSRCSSDQVETQACTREQNRICTCRPGWYCALSKQEGCRLCAPLRKCRPGFGVARPGTETSDVVCKPCAPGTFSNTTSSTDICRPHQICNVVAIPGNASMDAVCTSTSPTRSMAPGAVHLPQPVSTRSQHTQPTPEPSTAPSTSFLLPMGPSPPAEGSTGDTGEPKSSDKTHTCPPCPAPEAAGAPSVFLFPPKPKDTLMISRTPEVTCVVVDVSHEDPEVKFNWYVDGVEVHNAKTKPREEQYNSTYRVVSVLTVLHQDWLNGKAYACAVSNKALPAPIEKTISKAKGQPREPQVYTLPPSRDELTKNQVSLTCLVKGFYPSDIAVEWESNGQPENNYKTTPPVLDSDGSFFLYSKLTVDKSRWQQGNVFSCSVMHEALHNHYTQKSLSLSPGQRHNNSSLNTRTQKARHSPNSEVQLLESGGGLVQPGGSLRLSCAASGFTFSQYNMIWVRQAPGKGLEWVSWISSSGGTEYADSVKGRFTISRDNSKNTLYLQMNSLRAEDTAVYYCAKDRGYGSGSYGAYDAFDIWGQGTMVTVSSGGGGSGGGGSGGGGSQDIQMTQSPSSLSASVGDRVTITCQTSQSIDRYLNWYQQKAGEAPKLLIYAASSLQSGVPSRFSGSGSGTDFTLTISSLQPEDFASYYCQQSYRTPRTFGQGTKVEIK
notes: not trimmed; also called Xceptor TNFRSF1B::HIL6
B3: recombinant human sIL-6R (receptor)
chain: LAPRRCPAQEVARGVLTSLPGDSVTLTCPGVEPEDNATVHWVLRKPAAGSHPSRWAGMGRRLLLRSVQLHDSGNYSCYRAGRPAGTVHLLVDVPPEEPQLSCFRKSPLSNVVCEWGPRSTPSLTTKAVLLVRKFQNSPAEDFQEPCQYSQESQKFSCQLAVPEGDSSFYIVSMCVASSVGSKFSKTQTFQGCGILQPDPPANITVTAVARNPRWLSVTWQDPHSWNSSFYRLRFELRYRAERSKTFTTWMVKDLQHHCVIHDAWSGLRHVVQLRAQEEFGQGEWSEWSPEAMGTPWTESRSPPAENEVSTPMQALTTNKDDDNILFRDSANATSLPVQD
notes: Bought; also called human soluble IL6R
B4: Xceptor comprising a TNFRSF1B ectodomain and an OPG ectodomain (Fc fusion)
chain: LPAQVAFTPYAPEPGSTCRLREYYDQTAQMCCSKCSPGQHAKVFCTKTSDTVCDSCEDSTYTQLWNWVPECLSCGSRCSSDQVETQACTREQNRICTCRPGWYCALSKQEGCRLCAPLRKCRPGFGVARPGTETSDVVCKPCAPGTFSNTTSSTDICRPHQICNVVAIPGNASMDAVCTSTSPTRSMAPGAVHLPQPVSTRSQHTQPTPEPSTAPSTSFLLPMGPSPPAEGSTGDTGEPKSSDKTHTCPPCPAPEAAGAPSVFLFPPKPKDTLMISRTPEVTCVVVDVSHEDPEVKFNWYVDGVEVHNAKTKPREEQYNSTYRVVSVLTVLHQDWLNGKAYACAVSNKALPAPIEKTISKAKGQPREPQVYTLPPSRDELTKNQVSLTCLVKGFYPSDIAVEWESNGQPENNYKTTPPVLDSDGSFFLYSKLTVDKSRWQQGNVFSCSVMHEALHNHYTQKSLSLSPGQRHNNSSLNTGTQMAGHSPNSETFPPKYLHYDEETSHQLLCDKCPPGTYLKQHCTAKWKTVCAPCPDHYYTDSWHTSDECLYCSPVCKELQYVKQECNRTHNRVCECKEGRYLEIEFCLKHRSCPPGFGVVQAGTPERNTVCKRCPDGFFSNETSSKAPCRKHTNCSVFGLLLTQKGNATHDNICSGNSESTQKCGIDVTLCEEAFFRFAVPTKFTPNWLSVLVDNLPGTKVNAESVERIKRQHSSQEQTFQLLKLWKHQNKDQDIVKKIIQDIDLCENSVQRHIGHANLTFEQLRSLMESLPGKKVGAEDIEKTIKACKPSDQILKLLSLWRIKNGDQDTLKGLMHALKHSKTYHFPKTVTQSLKKTIRFLHSFTMYKLYQKLFLEMIGNQVQSVKISCL
notes: also called TNFR × OPG
B5: Xceptor comprising a TNFRSF1B ectodomain and an IL7R ectodomain (Fc fusion)
chain: LPAQVAFTPYAPEPGSTCRLREYYDQTAQMCCSKCSPGQHAKVFCTKTSDTVCDSCEDSTYTQLWNWVPECLSCGSRCSSDQVETQACTREQNRICTCRPGWYCALSKQEGCRLCAPLRKCRPGFGVARPGTETSDVVCKPCAPGTFSNTTSSTDICRPHQICNVVAIPGNASMDAVCTSTSPTRSMAPGAVHLPQPVSTRSQHTQPTPEPSTAPSTSFLLPMGPSPPAEGSTGDTGEPKSSDKTHTCPPCPAPEAAGAPSVFLFPPKPKDTLMISRTPEVTCVVVDVSHEDPEVKFNWYVDGVEVHNAKTKPREEQYNSTYRVVSVLTVLHQDWLNGKAYACAVSNKALPAPIEKTISKAKGQPREPQVYTLPPSRDELTKNQVSLTCLVKGFYPSDIAVEWESNGQPENNYKTTPPVLDSDGSFFLYSKLTVDKSRWQQGNVFSCSVMHEALHNHYTQKSLSLSPGQRHNNSSLNTGTQMAGHSPNSESGYAQNGDLEDAELDDYSFSCYSQLEVNGSQHSLTCAFEDPDVNITNLEFEICGALVEVKCLNFRKLQEIYFIETKKFLLIGKSNICVKVGEKSLTCKKIDLTTIVKPEAPFDLSVVYREGANDFVVTFNTSHLQKKYVKVLMHDVAYRQEKDENKWTHVNLSSTKLTLLQRKLQPAAMYEIKVRSIPDHYFKGFWSEWSPSYYFRTPEINNSSGEMDP
notes: also called TNFR × IL7R

What was measured:
recombinant human sIL-6R = target: B3; assay: ELISA: Xceptor captured on anti-human IgG-Fc, sIL-6R added, detected with anti-IL-6R-biotin
Procedure: (§1) Added to each well of a 96-well plate was 100 μl goat anti-human IgG-Fc (ICN Pharmaceuticals, Costa Mesa, Calif.) from a 2 μg/ml solution in PBS, pH 7.2-7.4. The plates were covered, and incubated overnight at 4° C. After washing four times with PBS-T, 250 μl Blocking buffer (PBS-T with 3% BSA or 10% normal goat serum) was added to each well, the plate was covered, and incubated at room temperature for 2 hours (or at 4° C. overnight). […] After washing the plate five times with PBS-T, added in duplicate wells was 100 μl/well recombinant human sIL-6R(R&D Systems) from a […] solution in Working buffer, the plate was covered, and incubated at room temperature for about 1 to 2 hours. After washing the plate five times with PBS-T, added 100 μl/well anti-human IL-6R-biotin (R&D Systems) from a 100 ng/ml solution in Working buffer, the plate was covered, and incubated at room temperature for about 1 to 2 hours. After washing the plate five times with PBS-T, 100 μl per well horse radish peroxidase-conjugated streptavidin (Zymed, San Francisco, Calif.) diluted 1:4,000 in Working buffer was added, the plate was covered, and incubated at room temperature for 30 minutes. After washing the plate six times with PBS-T, 100 μl per well 3,3,5,5-tetramentylbenzidine (TMB) substrate solution (Pierce, Rockford, Ill.) was added for about 3 to 5 minutes and then the reaction was stopped with 50 μl Stop buffer (1N H₂SO₄) per well. The absorbance of each well was read at 450 nm.

[1] = target: TNFα (Biacore analyte of Example 12) (UniProt P01375 77-233, limits assumed); assay: SPR (Biacore T100): binder captured by anti-human Fc, TNFα injected
Text: The unoccupied sites of the activated surface were blocked by ethanolamine. […] At the end of the cycle, the surface was regenerated gently using 3M MgCl₂ which dissociates protein bound to anti hFc capture antibody. […] The value of this parameter was then fixed and the data from the low density surface were used to calculate the association rate constant, kₐ and the Rₘₐₓ. This strategy maximizes signal-to-noise for the dissociation phase data and reduces the mass transport limitation for the association phase data. BIAevaluation software was used to perform these analyses.

recombinant human TNF-α = target: T4, recombinant human TNF-α (human, UniProt P01375 77-233); assay: ELISA: plate-coated HIL-6, Xceptor, then rhTNF-α, detected with anti-TNF-α-biotin (simultaneous binding)
T4 construct: also called rhTNFα
Procedure: The plate was covered, and incubated overnight at 4° C. […] The absorbance of each well was read at 450 nm.

TRU(XT6)-1042 = target: T5, TRU(XT6)-1042; assay: ELISA: Xceptor captured on anti-human IgG-Fc, sIL-6R added, detected with anti-IL-6R-biotin
T5 construct: not trimmed; also called Xceptor TNFRSF1B::anti-HIL6
Procedure: as §1

mouse RANKL = target: T1, mouse RANKL; assay: ELISA: plate-coated ligand, Xceptor detected with HRP anti-human IgG-Fc
Procedure: (§2) Mouse and human ligands (R&D Systems, Minnesota, MN) were added to wells of a 96-well plate at a concentration of 1 μg/ml in PBS (100 μl/well). Plates were incubated at 4° C. overnight. After washing five times with PBS-T, 250 μl Blocking Buffer (PBS-T with 3% BSA) was added to each well, and the plate covered and incubated at room temperature (RT) for 2 hours. Serial three fold dilutions of xceptors were made in Working Buffer (PBS-T with 1% BSA) starting at 300 ng/ml. As a negative control, an irrelevant xceptor was used. The plate was incubated at RT for 1 hour. After washing five times with PBS-T, 100 μl per well of HRP-conjugated anti-human IgG-Fc (1:5000 in Working buffer) was added, the plate covered, and incubated at RT for 1 hour. After washing five times with PBS-T, 100 µl of Quant-Blu substrate (Pierce, Rockford, Ill.) was added to each well. The plate was incubated at RT for 10-30 minutes, and fluorescence measured at 325/420 nm.

human RANKL = target: T2, human RANKL; assay: as above
Procedure: as §2

human IL7 = target: T3, human IL7; assay: as above
Procedure: as §2

Chain of TNFα (Biacore analyte of Example 12) (P01375 77-233 limits assumed): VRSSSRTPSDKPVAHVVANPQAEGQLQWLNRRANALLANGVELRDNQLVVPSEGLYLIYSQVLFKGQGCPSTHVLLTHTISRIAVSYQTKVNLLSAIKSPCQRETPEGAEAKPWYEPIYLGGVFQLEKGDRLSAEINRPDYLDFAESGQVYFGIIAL
T4 sequence (P01375 77-233 limits assumed): as above

With B1 the binding result (recombinant human sIL-6R) was “no binding”, the Kd [1] was 3.1 pM and the koff [1] was 0.00014 s⁻¹. It also gave a kon [1] of 4.7e+07 M⁻¹ s⁻¹.

B2: binds (recombinant human TNF-α).

B3: no binding (TRU(XT6)-1042).

B4: binds (mouse RANKL); binds (human RANKL).

B5: binds (human IL7).
